Reference: the supplement of paper PMC9112550, “Optimization of the antimicrobial peptide Bac7 by deep mutational scanning” (BMC Biology, 2022)

Test system: Escherichia coli TOP10
Assay: shrunken log2 fold change of peptide-encoding DNA abundance (4.5 h post-induction vs induction); higher = less antimicrobial activity (less host growth inhibition)
Details: time post-induction: 4.5 h; library: site-saturation at positions 5, 18, 19, 20
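Further: peptides expressed intracellularly from a pBAD plasmid library in pooled LB shake-flask culture, induced with 0.3% L-arabinose, DNA abundance read by NGS, three biological replicates, DESeq2 with apeglm shrinkage.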

RRIRPRPPRLPRPRPRPKLKPRP
shrunken log2 fold change: 0.105

RRIRPRPPRLPRPRPRPKLQPRP
shrunken log2 fold change: -0.00543

RRIRPRPPRLPRPRPRPKLTPRP
shrunken log2 fold change: 0.421

RRIRPRPPRLPRPRPRPKLVPRP
shrunken log2 fold change: 0.0371

RRIRPRPPRLPRPRPRPKNTPRP
shrunken log2 fold change: -0.218

RRIRPRPPRLPRPRPRPKRFPRP
shrunken log2 fold change: 0.297

RRIRPRPPRLPRPRPRPKRRPRP
shrunken log2 fold change: -0.093

RRIRPRPPRLPRPRPRPKVQPRP
shrunken log2 fold change: 0.327

RRIRPRPPRLPRPRPRPKYSPRP
shrunken log2 fold change: -0.55

RRIRPRPPRLPRPRPRPLANPRP
shrunken log2 fold change: -0.0209

RRIRPRPPRLPRPRPRPLCDPRP
shrunken log2 fold change: -0.312

RRIRPRPPRLPRPRPRPLEIPRP
shrunken log2 fold change: -0.199

RRIRPRPPRLPRPRPRPLGAPRP
shrunken log2 fold change: 0.426

RRIRPRPPRLPRPRPRPLGSPRP
shrunken log2 fold change: -0.0459

RRIRPRPPRLPRPRPRPLGVPRP
shrunken log2 fold change: 0.361

RRIRPRPPRLPRPRPRPLHCPRP
shrunken log2 fold change: -0.382

RRIRPRPPRLPRPRPRPLHGPRP
shrunken log2 fold change: 0.0827

RRIRPRPPRLPRPRPRPLHIPRP
shrunken log2 fold change: 0.656

RRIRPRPPRLPRPRPRPLHLPRP
shrunken log2 fold change: -0.311

RRIRPRPPRLPRPRPRPLHWPRP
shrunken log2 fold change: 0.481

RRIRPRPPRLPRPRPRPLKIPRP
shrunken log2 fold change: -0.169

RRIRPRPPRLPRPRPRPLKYPRP
shrunken log2 fold change: -0.424

RRIRPRPPRLPRPRPRPLMEPRP
shrunken log2 fold change: 0.0162

RRIRPRPPRLPRPRPRPLNDPRP
shrunken log2 fold change: -0.298

RRIRPRPPRLPRPRPRPLNEPRP
shrunken log2 fold change: -0.348

RRIRPRPPRLPRPRPRPLNSPRP
shrunken log2 fold change: -0.262

RRIRPRPPRLPRPRPRPLPTPRP
shrunken log2 fold change: 0.42

RRIRPRPPRLPRPRPRPLQMPRP
shrunken log2 fold change: 0.205

RRIRPRPPRLPRPRPRPLQPPRP
shrunken log2 fold change: 0.273

RRIRPRPPRLPRPRPRPLRCPRP
shrunken log2 fold change: 0.394

RRIRPRPPRLPRPRPRPLRLPRP
shrunken log2 fold change: 0.2

RRIRPRPPRLPRPRPRPLRYPRP
shrunken log2 fold change: 0.17

RRIRPRPPRLPRPRPRPLSLPRP
shrunken log2 fold change: 0.0584

RRIRPRPPRLPRPRPRPLSRPRP
shrunken log2 fold change: 0.0978

RRIRPRPPRLPRPRPRPLTKPRP
shrunken log2 fold change: 0.0122

RRIRPRPPRLPRPRPRPLTRPRP
shrunken log2 fold change: 0.103

RRIRPRPPRLPRPRPRPLVSPRP
shrunken log2 fold change: 0.00371

RRIRPRPPRLPRPRPRPLYFPRP
shrunken log2 fold change: -0.602

RRIRPRPPRLPRPRPRPLYPPRP
shrunken log2 fold change: -0.244

RRIRPRPPRLPRPRPRPMCIPRP
shrunken log2 fold change: -0.0687

RRIRPRPPRLPRPRPRPMCRPRP
shrunken log2 fold change: -0.263

RRIRPRPPRLPRPRPRPMDDPRP
shrunken log2 fold change: 0.00641

RRIRPRPPRLPRPRPRPMDIPRP
shrunken log2 fold change: -0.158

RRIRPRPPRLPRPRPRPMEYPRP
shrunken log2 fold change: -0.00176

RRIRPRPPRLPRPRPRPMFYPRP
shrunken log2 fold change: -0.449

RRIRPRPPRLPRPRPRPMGAPRP
shrunken log2 fold change: 0.117

RRIRPRPPRLPRPRPRPMGNPRP
shrunken log2 fold change: -0.0876

RRIRPRPPRLPRPRPRPMHCPRP
shrunken log2 fold change: -0.0698

RRIRPRPPRLPRPRPRPMIDPRP
shrunken log2 fold change: -0.16

RRIRPRPPRLPRPRPRPMKEPRP
shrunken log2 fold change: 0.104

RRIRPRPPRLPRPRPRPMLIPRP
shrunken log2 fold change: -0.553

RRIRPRPPRLPRPRPRPMNGPRP
shrunken log2 fold change: 0.137

RRIRPRPPRLPRPRPRPMRMPRP
shrunken log2 fold change: 0.268

RRIRPRPPRLPRPRPRPMRVPRP
shrunken log2 fold change: 0.998

RRIRPRPPRLPRPRPRPMSSPRP
shrunken log2 fold change: -0.135

RRIRPRPPRLPRPRPRPMTEPRP
shrunken log2 fold change: -0.0153

RRIRPRPPRLPRPRPRPMTHPRP
shrunken log2 fold change: -0.268

RRIRPRPPRLPRPRPRPMTVPRP
shrunken log2 fold change: -0.038

RRIRPRPPRLPRPRPRPMVKPRP
shrunken log2 fold change: -0.154

RRIRPRPPRLPRPRPRPMVSPRP
shrunken log2 fold change: -0.0725

RRIRPRPPRLPRPRPRPMWKPRP
shrunken log2 fold change: -0.146

RRIRPRPPRLPRPRPRPMWVPRP
shrunken log2 fold change: -0.138

RRIRPRPPRLPRPRPRPMYHPRP
shrunken log2 fold change: -0.35

RRIRPRPPRLPRPRPRPMYSPRP
shrunken log2 fold change: -0.386

RRIRPRPPRLPRPRPRPNAFPRP
shrunken log2 fold change: -0.0225

RRIRPRPPRLPRPRPRPNAWPRP
shrunken log2 fold change: 0.356

RRIRPRPPRLPRPRPRPNAYPRP
shrunken log2 fold change: -0.0709

RRIRPRPPRLPRPRPRPNCEPRP
shrunken log2 fold change: 0.117

RRIRPRPPRLPRPRPRPNDAPRP
shrunken log2 fold change: -0.025

RRIRPRPPRLPRPRPRPNDCPRP
shrunken log2 fold change: 0.0214

RRIRPRPPRLPRPRPRPNDHPRP
shrunken log2 fold change: -0.386

RRIRPRPPRLPRPRPRPNDVPRP
shrunken log2 fold change: -0.206

RRIRPRPPRLPRPRPRPNEAPRP
shrunken log2 fold change: -0.151

RRIRPRPPRLPRPRPRPNFMPRP
shrunken log2 fold change: 0.109

RRIRPRPPRLPRPRPRPNFNPRP
shrunken log2 fold change: -0.273

RRIRPRPPRLPRPRPRPNGKPRP
shrunken log2 fold change: -0.257

RRIRPRPPRLPRPRPRPNGRPRP
shrunken log2 fold change: -0.00968

RRIRPRPPRLPRPRPRPNGVPRP
shrunken log2 fold change: -0.0233

RRIRPRPPRLPRPRPRPNHKPRP
shrunken log2 fold change: -0.385

RRIRPRPPRLPRPRPRPNHSPRP
shrunken log2 fold change: -0.553

RRIRPRPPRLPRPRPRPNHTPRP
shrunken log2 fold change: -0.21

RRIRPRPPRLPRPRPRPNHVPRP
shrunken log2 fold change: -0.532

RRIRPRPPRLPRPRPRPNIPPRP
shrunken log2 fold change: -0.355

RRIRPRPPRLPRPRPRPNIVPRP
shrunken log2 fold change: -0.342

RRIRPRPPRLPRPRPRPNKDPRP
shrunken log2 fold change: -0.534

RRIRPRPPRLPRPRPRPNLDPRP
shrunken log2 fold change: 0.109

RRIRPRPPRLPRPRPRPNLVPRP
shrunken log2 fold change: -0.225

RRIRPRPPRLPRPRPRPNMRPRP
shrunken log2 fold change: 0.272

RRIRPRPPRLPRPRPRPNNAPRP
shrunken log2 fold change: -0.19

RRIRPRPPRLPRPRPRPNPCPRP
shrunken log2 fold change: -0.165

RRIRPRPPRLPRPRPRPNQRPRP
shrunken log2 fold change: 0.0736

RRIRPRPPRLPRPRPRPNRPPRP
shrunken log2 fold change: 0.274

RRIRPRPPRLPRPRPRPNRYPRP
shrunken log2 fold change: -0.0334

RRIRPRPPRLPRPRPRPNSFPRP
shrunken log2 fold change: -0.251

RRIRPRPPRLPRPRPRPNSWPRP
shrunken log2 fold change: -0.299

RRIRPRPPRLPRPRPRPNTFPRP
shrunken log2 fold change: -0.0232

RRIRPRPPRLPRPRPRPNVFPRP
shrunken log2 fold change: -0.21

RRIRPRPPRLPRPRPRPNVMPRP
shrunken log2 fold change: -0.341

RRIRPRPPRLPRPRPRPNVYPRP
shrunken log2 fold change: -0.177

RRIRPRPPRLPRPRPRPNYEPRP
shrunken log2 fold change: -0.442

RRIRPRPPRLPRPRPRPPAEPRP
shrunken log2 fold change: 0.632

RRIRPRPPRLPRPRPRPPAWPRP
shrunken log2 fold change: 0.452

RRIRPRPPRLPRPRPRPPCFPRP
shrunken log2 fold change: 0.307

RRIRPRPPRLPRPRPRPPDCPRP
shrunken log2 fold change: -0.0878

RRIRPRPPRLPRPRPRPPENPRP
shrunken log2 fold change: 0.365

RRIRPRPPRLPRPRPRPPEWPRP
shrunken log2 fold change: 0.443

RRIRPRPPRLPRPRPRPPFAPRP
shrunken log2 fold change: 0.647

RRIRPRPPRLPRPRPRPPFYPRP
shrunken log2 fold change: 0.0888

RRIRPRPPRLPRPRPRPPGLPRP
shrunken log2 fold change: 0.268

RRIRPRPPRLPRPRPRPPHCPRP
shrunken log2 fold change: 0.388

RRIRPRPPRLPRPRPRPPKRPRP
shrunken log2 fold change: 0.496

RRIRPRPPRLPRPRPRPPLAPRP
shrunken log2 fold change: 0.513

RRIRPRPPRLPRPRPRPPLTPRP
shrunken log2 fold change: 0.274

RRIRPRPPRLPRPRPRPPMCPRP
shrunken log2 fold change: 0.0827

RRIRPRPPRLPRPRPRPPMIPRP
shrunken log2 fold change: -0.425

RRIRPRPPRLPRPRPRPPNNPRP
shrunken log2 fold change: 0.414

RRIRPRPPRLPRPRPRPPRCPRP
shrunken log2 fold change: 0.408

RRIRPRPPRLPRPRPRPPRFPRP
shrunken log2 fold change: 0.557

RRIRPRPPRLPRPRPRPPRYPRP
shrunken log2 fold change: 0.237

RRIRPRPPRLPRPRPRPPTDPRP
shrunken log2 fold change: 0.184

RRIRPRPPRLPRPRPRPPTPPRP
shrunken log2 fold change: 0.417

RRIRPRPPRLPRPRPRPPWCPRP
shrunken log2 fold change: 0.0891

RRIRPRPPRLPRPRPRPPYAPRP
shrunken log2 fold change: 0.193

RRIRPRPPRLPRPRPRPPYKPRP
shrunken log2 fold change: -0.113

RRIRPRPPRLPRPRPRPQACPRP
shrunken log2 fold change: -0.0282

RRIRPRPPRLPRPRPRPQAPPRP
shrunken log2 fold change: -0.0721

RRIRPRPPRLPRPRPRPQCKPRP
shrunken log2 fold change: -0.398

RRIRPRPPRLPRPRPRPQCNPRP
shrunken log2 fold change: -0.0419

RRIRPRPPRLPRPRPRPQCVPRP
shrunken log2 fold change: 0.14

RRIRPRPPRLPRPRPRPQFLPRP
shrunken log2 fold change: -0.164

RRIRPRPPRLPRPRPRPQFPPRP
shrunken log2 fold change: 0.0341

RRIRPRPPRLPRPRPRPQGDPRP
shrunken log2 fold change: 0.243

RRIRPRPPRLPRPRPRPQGHPRP
shrunken log2 fold change: 0.05

RRIRPRPPRLPRPRPRPQHLPRP
shrunken log2 fold change: -0.172

RRIRPRPPRLPRPRPRPQIDPRP
shrunken log2 fold change: -0.0108

RRIRPRPPRLPRPRPRPQIGPRP
shrunken log2 fold change: 0.128

RRIRPRPPRLPRPRPRPQIIPRP
shrunken log2 fold change: -0.447

RRIRPRPPRLPRPRPRPQIVPRP
shrunken log2 fold change: -0.594

RRIRPRPPRLPRPRPRPQLEPRP
shrunken log2 fold change: 0.376

RRIRPRPPRLPRPRPRPQLVPRP
shrunken log2 fold change: 0.0126

RRIRPRPPRLPRPRPRPQMEPRP
shrunken log2 fold change: 0.0168

RRIRPRPPRLPRPRPRPQNDPRP
shrunken log2 fold change: -0.371

RRIRPRPPRLPRPRPRPQNKPRP
shrunken log2 fold change: -0.479

RRIRPRPPRLPRPRPRPQNPPRP
shrunken log2 fold change: -0.216

RRIRPRPPRLPRPRPRPQNVPRP
shrunken log2 fold change: -0.212

RRIRPRPPRLPRPRPRPQPFPRP
shrunken log2 fold change: -0.149

RRIRPRPPRLPRPRPRPQPNPRP
shrunken log2 fold change: 0.185

RRIRPRPPRLPRPRPRPQQEPRP
shrunken log2 fold change: 0.0468

RRIRPRPPRLPRPRPRPQRFPRP
shrunken log2 fold change: 0.0622

RRIRPRPPRLPRPRPRPQRHPRP
shrunken log2 fold change: -0.14
